The text below walks through data of patent US20170267766A1.

For assay [1], the target named is rhIGF-1R protein (R&D Systems, Cat No 391-GR) (human) (UniProt P08069). The assay can be described thus: ELISA, coated rh IGF-1R, 5 ug/ml. A general note: An ELISA detects its analyte on a solid surface through an enzyme-linked reagent.
Assay [2] addresses rhIR protein (R&D Systems, cat No 1544-IR/CF) (human) (UniProt P06213). Briefly: ELISA, coated rh Insulin R, 5 ug/ml.
In assay [3] the target is rmIGF-1R protein (R&D Systems, cat No 6630-GR/Fc) (murine) (UniProt Q60751). Briefly: ELISA, coated rm IGF-1R, 5 ug/ml.
Sequence of rmIGF-1R protein (R&D Systems, cat No 6630-GR/Fc) (murine) (Q60751 31-936): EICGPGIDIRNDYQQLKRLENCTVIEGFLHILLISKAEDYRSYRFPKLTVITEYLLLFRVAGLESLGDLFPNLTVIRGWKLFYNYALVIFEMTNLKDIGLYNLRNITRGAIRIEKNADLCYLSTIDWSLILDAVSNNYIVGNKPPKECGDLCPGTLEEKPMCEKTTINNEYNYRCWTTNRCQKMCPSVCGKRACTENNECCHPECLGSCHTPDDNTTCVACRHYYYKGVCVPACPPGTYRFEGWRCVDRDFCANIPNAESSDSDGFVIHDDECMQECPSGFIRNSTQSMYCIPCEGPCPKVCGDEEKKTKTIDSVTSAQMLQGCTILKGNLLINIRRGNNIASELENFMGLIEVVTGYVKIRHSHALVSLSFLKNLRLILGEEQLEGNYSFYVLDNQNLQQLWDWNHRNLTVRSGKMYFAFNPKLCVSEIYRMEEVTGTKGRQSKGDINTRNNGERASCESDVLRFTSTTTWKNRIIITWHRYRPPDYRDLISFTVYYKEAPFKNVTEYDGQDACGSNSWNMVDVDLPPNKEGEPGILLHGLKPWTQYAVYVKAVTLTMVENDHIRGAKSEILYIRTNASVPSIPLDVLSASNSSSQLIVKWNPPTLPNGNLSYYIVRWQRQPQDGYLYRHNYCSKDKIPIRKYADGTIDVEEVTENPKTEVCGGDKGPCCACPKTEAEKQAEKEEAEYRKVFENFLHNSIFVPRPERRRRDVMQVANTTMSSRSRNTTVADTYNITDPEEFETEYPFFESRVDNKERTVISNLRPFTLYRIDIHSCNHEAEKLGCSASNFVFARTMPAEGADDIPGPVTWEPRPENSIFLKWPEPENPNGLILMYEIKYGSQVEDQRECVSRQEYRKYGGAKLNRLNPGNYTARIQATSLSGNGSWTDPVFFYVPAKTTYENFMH

Sequence of rhIR protein (R&D Systems, cat No 1544-IR/CF) (human) (P06213 other isoform, or with tags, fused parts or gaps limits assumed): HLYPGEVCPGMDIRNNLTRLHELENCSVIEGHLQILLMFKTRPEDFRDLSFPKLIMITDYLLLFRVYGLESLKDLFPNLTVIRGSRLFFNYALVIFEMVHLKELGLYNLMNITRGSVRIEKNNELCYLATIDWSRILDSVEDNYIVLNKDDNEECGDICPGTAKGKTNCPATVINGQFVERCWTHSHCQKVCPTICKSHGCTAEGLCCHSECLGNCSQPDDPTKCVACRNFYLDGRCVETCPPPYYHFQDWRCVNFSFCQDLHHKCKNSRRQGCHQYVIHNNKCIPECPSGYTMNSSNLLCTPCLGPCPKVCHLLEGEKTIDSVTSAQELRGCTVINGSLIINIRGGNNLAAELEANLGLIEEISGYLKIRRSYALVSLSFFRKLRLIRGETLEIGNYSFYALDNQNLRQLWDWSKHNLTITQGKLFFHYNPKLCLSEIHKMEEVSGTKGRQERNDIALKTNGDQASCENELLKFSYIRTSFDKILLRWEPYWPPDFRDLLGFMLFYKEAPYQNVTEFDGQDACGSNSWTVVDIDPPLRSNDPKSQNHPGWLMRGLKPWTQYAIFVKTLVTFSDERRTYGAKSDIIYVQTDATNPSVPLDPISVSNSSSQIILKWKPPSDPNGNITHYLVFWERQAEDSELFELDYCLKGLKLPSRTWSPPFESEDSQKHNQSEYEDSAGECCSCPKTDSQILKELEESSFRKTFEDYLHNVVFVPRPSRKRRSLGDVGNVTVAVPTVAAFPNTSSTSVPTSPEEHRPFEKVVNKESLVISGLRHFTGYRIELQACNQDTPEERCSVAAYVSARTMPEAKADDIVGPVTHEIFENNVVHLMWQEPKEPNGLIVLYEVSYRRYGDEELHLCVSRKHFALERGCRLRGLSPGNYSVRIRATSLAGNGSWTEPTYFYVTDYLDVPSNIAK

Regarding mIgG1 (antibody), the D.O 450 nm amounted to 0.093 D.O 450 nm in assay [1], 0.127 D.O 450 nm in assay [2] and 0.116 D.O 450 nm in assay [3].
